Measurements reported in patent publication US20110081339A1 (Amgen, published 2011).
Where two headings read alike, the source gives them in different places.

B1: IL-17RA human mAb having the heavy and light chain variable sequences (AMH14/AML14) (antibody, IgG2, V domains shown)
VH: QVQLVQSGAEVKKPGASVKVSCKASGYTFTRYGISWVRQAPGQGLEWMGWISTYSGNTNYAQKLQGRVTMTTDTSTSTAYMELRSLRSDDTAVYYCARRQLYFDYWGQGTLVTVSS
VL: EIVMTQSPATLSVSPGERATLSCRASQSVSSNLAWFQQKPGQAPRPLIYDASTRATGVPARFSGSGSGTDFTLTISSLQSEDFAVYYCQQYDNWPLTFGGGTKVEIK
notes: Fully human, from IgG2 XenoMouse mice; Only variable domains are tied to it in the description; also called AM-14; AML14/AMH14
B2: IL-17RA mAb (AMH17/AML17) (antibody, V domains shown)
VH: QVQLVQSGAEVKKPGAAVKVSCKATGYTLTSYGISWVRQAPGQGLEWMGWISAYSGNTKYAQKLQGRVTMTTDTSTSTAYMELRSLRSDDTAVYYCARKQLVFDYWGQGTLVTVSS
VL: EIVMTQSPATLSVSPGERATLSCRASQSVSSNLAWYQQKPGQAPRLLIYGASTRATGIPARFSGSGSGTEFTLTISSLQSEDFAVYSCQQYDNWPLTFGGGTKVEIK
notes: From IgG2 XenoMouse mice; also called AM-17; AML17/AMH17
B3: AMH14/AML14 (hybridoma) (antibody, V domains shown)
VH: QVQLVQSGAEVKKPGASVKVSCKASGYTFTRYGISWVRQAPGQGLEWMGWISTYSGNTNYAQKLQGRVTMTTDTSTSTAYMELRSLRSDDTAVYYCARRQLYFDYWGQGTLVTVSS
VL: EIVMTQSPATLSVSPGERATLSCRASQSVSSNLAWFQQKPGQAPRPLIYDASTRATGVPARFSGSGSGTDFTLTISSLQSEDFAVYYCQQYDNWPLTFGGGTKVEIK
B4: IL-17RA mAb (AMH15/AML15) (antibody, V domains shown)
VH: QVQLVESGGGVVQPGRSLRLSCAASGFTFSSYGMQWVRQAPGKGLEWVAVIWYDGNKKYYADSVKGRFTISRDNSKNTLYLQMNSLRAEDTAVYYCARGRVRDYYYGMDVWGQGTTVTVSS
VL: EIVMTQSPATLSVSPGERVTLSCRASQSVSSNLAWFQQKPGQAPRPLIYDASTRAAGIPARFSGSGSGTDFTLTISSLQSEDFAVYYCQQYDNWPLTFGGGTKVEIK
notes: also called AM-15; AML15/AMH15
B5: IL-17RA mAb (AMH12/AML12) (antibody, IgG2, V domains shown)
VH: QVQLVQSGAEVKKPGASVKVSCKASGYTLTSYGISWVRQAPGQGLEWMGWISTYKGNTNYAQKLQGRVTMTTDTSTSTAYMELRSLRSDDTAVYYCARKQLVFDYWGQGTLVTVSS
VL: EIVMTQSPATLSVSPGERATLSCRASQSISSSLAWYQQKPGQAPRLLIYGASTRATGIPARFSGSGSGTEFTLTISSLQSENFAVYYCQQYDNWPLTFGGGTKVEIK
notes: From IgG2 XenoMouse mice; also called AM-12; AML12/AMH12
B6: IL-17RA mAb (AMH16/AML16) (antibody, IgG2, V domains shown)
VH: QVQLVQSGAEVKKPGASVKVSCKASGYTFTSYGISWVRQAPGQGLEWMGWISAYNGNTKYAQKLQGRVTMTTDTSTSTVYMELRSLRSDDTAVYYCARKQLVFDYWGQGTLVTVSS
VL: EIVMTQSPATLSVSPGERATLSCRASQSISTSLAWYQQKPGQAPRLLIYGTSTRATGIPARFSGSGSGTEFTLTISSLQSEDFAVYFCQQYDIWPLTFGGGTKVEIK
notes: From IgG2 XenoMouse mice; also called AM-16; AML16/AMH16
B7: IL-17RA human mAb (AMH22/AML22) (antibody, IgG2, V domains shown)
VH: QVQLVQSGAEVKKPGASVKVSCKASGYTFTRYGISWVRQAPGQGLEWMGWISAYSGNTNYAQKLQGRVTMTTDTSTSTAYMELRSLRSDDTAVYYCARRQLYFDYWGQGTLVTVSS
VL: EIVMTQSPATLSVSPGERVTLSCRASQSVSSNLAWFQQKPGQAPRPLIYDASTRAAGIPARFSGSGSGTDFTLTISSLQSEDFAVYYCQQYDNWPLTFGGGTKVEIK
notes: Fully human, from IgG2 XenoMouse mice; also called AM-22; AML22/AMH22
B8: IL-17RA mAb (AMH13/AML13) (antibody, IgG2, V domains shown)
VH: QVQLVESGGGVVQPGRSLRLSCAASGFTFSSYGMQWVRQAPGKGLEWVAVIWYDGNKKYYADSVKGRFTISRDNSKNTLYLQMNSLRAEDTAVYYCARGRVRDYYYGMDVWGQGTTVTVSS
VL: DIVMTQTPLSLSVTPGQPASIACKSSQSLLHSDGKTYLYWYLQKPGQPPQLLIYEVSTRFSGVPDRFSGSGSGTDFTLKISRVEAEDVGVFYCMQSIQLPLTFGGGTKVEIK
notes: From IgG2 XenoMouse mice; also called AM-13; AML13/AMH13
B9: IL-17RA mAb (AMH1/AML1) (antibody, V domains shown)
VH: QVQLQESGPGLVKPSETLSLTCTVSGGSISNYYWNWIRQSPGKGLEWIGDIYYSGSTNYNPSLKSRVTISVDTSKNQFSLKLSSVTTADTAVYYCARDGELANYYGSGSYQFYYYYGMDVWGQGTTVTVSS
VL: DILMTQSPSSLSASVGDRVTITCRASQGIRNDLGWYQQKPGKAPKRLIYAASSLQSGVPSRFSGSGSGTEFTLTISSLQPEDFATYYCLQHNSNPFTFGPGTKVDIK
notes: also called AM-1; AML1/AMH1
B10: IL-17RA mAb (AMH5/AML5) (antibody, V domains shown)
VH: QVQLQESGPGLVKPSETLPLTCTVSGGSIRSYYWSWIRQPAGKGLEWIGRIYRSGNTIYNPSLKSRVTMSIDTSKNQFSLTLSSVTAADTAVYYCARENYSESSGLYYYYGMDVWGQGTTVTVSS
VL: DIQMTQSPSSLSASVGDRVTITCRASQGIRNDLGWYQQKPGKAPKRLIYAASSFQSGVPSRFSGSGSGTGFTLTISSLQPEDFATYYCLQHNSYPPTFGQGTKVEIK
notes: also called AM-5; AML5/AMH5
B11: IL-17RA mAb (AMH11/AML11) (antibody, V domains shown)
VH: QVQLVESGGGVVQPGRSLRLSCATSGITFSSYGMHWVRQAPGKGLEWVAVIWYDGSNKYYADSVKGRFTISRDNSKNTLYLQMNSLRAEDTAVYYCARDTKDYWGQGTLVTVSS
VL: EIVMTQSPATLSVSPGERATLSCRASQSVSSNLAWYQQKPGQAPRLLIYGASTRAAGIPARFSGGGSGTAFTLTISNLQSEDFAVYYCQHYINWPKWTFGQGTKVDIK
notes: also called AM-11; AML11/AMH11
B12: IL-17RA mAb (AMH21/AML21) (antibody, IgG2, V domains shown)
VH: EVQLVESGGGSVQPGGSLRLSCAASGFTFSSYSMNWVRQAPGKGLEWVSIISSRSSIIHYADSVKGRFTISRDNAKNSLYLQMNSLRDEDTAVYYCARPKVGGGMDVWGQGTTVTVSS
VL: DIQMTQSPSSLSASVGDRVTITCRASQGISNYLAWYQQKPGKFPELLIYAASTLQSGVPSRFSGSGSGTDFTLTISSLQPEDVATYYCQKYNRAPFTFGPGTKVDIK
notes: From IgG2 XenoMouse mice; also called AM-21; AML21/AMH21

Columns and labels:
[1] = biological target: cynomolgus IL-17RA expressed on cells (cynomolgus); assay: cell-based or functional assay
[2] = biological target: T1, cynomolgus IL-17RA expressed on cells (cynomolgus); assay: FACS; inhibition of biotin-huIL-17A binding; MFI
T1 construct: whole, on cells; CHO cell line over-expressing cynomolgus IL-17RA (FACS); also called cyno IL-17RA; CHO-cynoIL-17RA

[3] = biological target: T1, cynomolgus IL-17RA expressed on cells; assay: FACS; inhibition of biotin-huIL-17A binding; MFI; remark: listed apart in the source
Excerpt: The anti-IL-17RA antibodies were characterized. […] Anti-IL-17RA non-clonal hybridomas were selected for sub-cloning based on their performance in the CHO-IL-17RA FACS assay and HFF bioassay.

[4] = biological target: Human IL-17RA full-length expressed on the surface of cells (human, UniProt Q96F46 33-866); assay: cell-based or functional assay
[5] = biological target: T1, cynomolgus IL-17RA expressed on cells; assay: FACS; inhibition of biotin-huIL-17A binding; MFI; remark: listed apart in the source

Binder | MFI [3] | MFI [5] | also measured
B1 | – | – | IC50, cynomolgous IL-17A-induced IL-6 production from JTC-12 cells [1]: ~1.2 nM; MFI [2]: 10
B2 | 8 | – | –
B3 | – | – | IC50 (read off the curve) (IL-17A-induced GRO-alpha production from HFF cells; blocked ligand m20) [4]: ~0.01 µg/mL
B4 | – | – | MFI [2]: 6
B5 | 6 | – | –
B6 | 6 | – | –
B7 | – | 18 | –
B8 | 6 | – | –
B9 | – | 11 | –
B10 | – | 9 | –
B11 | – | 9 | –
B12 | – | – | MFI [2]: 6
